Data set [1] concerns the target T1, EGFR recombinant protein (Sino Biological 10001-H08H) (human, UniProt P00533 25-645). In words: ELONA; Binding buffer: serum-free DMEM + 100 ug/mL tRNA; aptamers denatured 95 C 5 min, snap cooled on ice 10 min; ELONA 1 h (temperature not given); flow cytometry Kd. As to conditions: protein: commercial, label: 5'-biotin (ELONA). (In general: Flow cytometry measures light scatter and fluorescence of single cells or particles in a stream.)

Data set [2] has as its target T1, EGFR recombinant protein (Sino …). In words: ELONA; 100 nM aptamer; Binding buffer: serum-free DMEM + 100 ug/mL tRNA; aptamers denatured 95 C 5 min, snap cooled on ice 10 min; ELONA 1 h (temperature not given); flow cytometry Kd. As to conditions: protein: commercial; label: 5'-biotin (ELONA).

Broadly, the Kd is the constant that tells how readily two partners part at equilibrium.

On to GCCUUAGUAACGUGCUUUGAUGUCGAUUCGACAGGAGGC (XNA, 2'-F on all C and U; A and G are RNA) [CL-4], for which the Kd in data set [1] was 13.3 nM.

In the case of UGCUUUGAUGUCGAUUCGACAGGAGGC (structured_RNA, none (all RNA)) [CL-4RNV617], the binding result in data set [2] is listed as “no binding”.

Consider UGCUUUGAUGUCGAUUCGACAGGAGGC (XNA, 2'-OMe on U, G, C; all A (positions 8, 14, 19, 21, 24) are DNA) [CL-4RNV616], for which, in data set [1] (5'-FAM (cells)), the equilibrium dissociation constant (Kd) came out at 18.2 nM.

Consider TGCTTTGATGTCGATTCGACAGGAGGC (structured_DNA, none (all DNA)) [CL-4RNV618], for which the binding result in data set [2] is listed as “no binding”.

(Values after PMC6801465, “Efficient Epidermal Growth Factor Receptor Targeting Oligonucleotide as a Potential Molecule for Targeted Cancer Therapy”.)
